# According to patent US20230203202A1 (DRAGONFLY THERAPEUTICS, published 2023):
# Residue numbers refer to the chain shown, from its start.
# T1: human 5T4 on the cell surface (human, UniProt Q13641 32-420)
# T1 construct: whole, on cells; also called h5T4; TPBG
# T1 sequence (looked up): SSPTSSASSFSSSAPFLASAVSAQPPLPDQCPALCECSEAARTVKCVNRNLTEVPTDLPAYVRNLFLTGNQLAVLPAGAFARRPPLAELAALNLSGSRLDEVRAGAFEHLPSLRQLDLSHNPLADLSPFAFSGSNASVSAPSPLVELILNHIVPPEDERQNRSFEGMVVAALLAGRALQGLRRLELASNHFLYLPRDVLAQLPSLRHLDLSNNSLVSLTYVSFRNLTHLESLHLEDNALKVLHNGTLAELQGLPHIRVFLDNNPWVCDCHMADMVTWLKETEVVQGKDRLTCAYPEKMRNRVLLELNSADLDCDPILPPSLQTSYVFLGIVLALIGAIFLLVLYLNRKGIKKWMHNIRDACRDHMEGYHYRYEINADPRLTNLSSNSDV
# B1: AB1878-TriNKET® (bispecific antibody, human IgG1, kappa)
# chain: DIQLTQSPSSLSASVGDRVTITCRASQSVTTSNYNYMHWFQQKPGKAPKLLIKFASNLESGVPSRFSGSGSGTDFTLTISSLQPEDFATYYCQHSWEIPWTFGCGTKVEIKGGGGSGGGGSGGGGSGGGGSEVQLVESGGGLVKPGGSLRLSCAASRFTFSDFGMHWVRQAPGKCLEWVSYISSGSSTIYYADTVKGRFTISRDNAKNSLYLQMNSLRAEDTAVYYCASSQSYYRGTLDYWGQGTTVTVSSGSDKTHTCPPCPAPELLGGPSVFLFPPKPKDTLMISRTPEVTCVVVDVSHEDPEVKFNWYVDGVEVHNAKTKPREEQYNSTYRVVSVLTVLHQDWLNGKEYKCKVSNKALPAPIEKTISKAKGQPREPRVYTLPPCRDELTKNQVSLTCLVKGFYPSDIAVEWESNGQPENNYKTTPPVLVSDGSFTLYSKLTVDKSRWQQGNVFSCSVMHEALHNHYTQKSLSLSPG
# heavy: EVQLVESGGGLVKPGGSLRLSCAASGFTFSSYSMNWVRQAPGKGLEWVSSISSSSSYIYYADSVKGRFTISRDNAKNSLYLQMNSLRAEDTAVYYCARGAPIGAAAGWFDPWGQGTLVTVSSASTKGPSVFPLAPSSKSTSGGTAALGCLVKDYFPEPVTVSWNSGALTSGVHTFPAVLQSSGLYSLSSVVTVPSSSLGTQTYICNVNHKPSNTKVDKKVEPKSCDKTHTCPPCPAPELLGGPSVFLFPPKPKDTLMISRTPEVTCVVVDVSHEDPEVKFNWYVDGVEVHNAKTKPREEQYNSTYRVVSVLTVLHQDWLNGKEYKCKVSNKALPAPIEKTISKAKGQPREPQVCTLPPSRDELTENQVSLTCLVKGFYPSDIAVEWESNGQPENNYKTTPPVLDSDGSFFLYSWLTVDKSRWQQGNVFSCSVMHEALHNHYTQKSLSLSPG
# light: DIQMTQSPSSVSASVGDRVTITCRASQGISSWLAWYQQKPGKAPKLLIYAASSLQSGVPSRFSGSGSGTDFTLTISSLQPEDFATYYCQQGVSFPRTFGGGTKVEIKRTVAAPSVFIFPPSDEQLKSGTASVVCLLNNFYPREAKVQWKVDNALQSGNSQESVTEQDSKDSTYSLSSTLTLSKADYEKHKVYACEVTHQGLSSPVTKSFNRGEC
# notes: F3′ format; also called AB1878-VL-VH TriNKET®; 10F10-IGHV3-21*05 BM1
# B2: AB1887-TriNKET® (bispecific antibody, human IgG1, kappa)
# chain: B1 chain with V179I, S180A
# heavy: B1 heavy
# light: B1 light
# notes: F3′ format; also called AB1887-VL-VH TriNKET®; 10F10-IGHV3-21*05 BM2
# B3: AB1885-TriNKET® (bispecific antibody, human IgG1, kappa)
# chain: B1 chain with E132Q, V179I, S180A
# heavy: B1 heavy
# light: B1 light
# notes: F3′ format; also called AB1885-VL-VH TriNKET®; 10F10-IGHV3-11*01 BM2
# B4: AB1882-TriNKET® (bispecific antibody, human IgG1, kappa)
# chain: B1 chain with K144Q
# heavy: B1 heavy
# light: B1 light
# notes: F3′ format; also called AB1882-VL-VH TriNKET®; 10F10-IGHV3-48*01 BM1
# B5: AB1892-TriNKET® (bispecific antibody, human IgG1, kappa)
# chain: B1 chain with V136L, K144Q, A206S, S209T
# heavy: B1 heavy
# light: B1 light
# notes: F3′ format; also called AB1892-VL-VH TriNKET®; 10F10-IGHV3-23*03 BM1
# B6: AB1886-TriNKET® (bispecific antibody, human IgG1, kappa)
# chain: B1 chain with V168I
# heavy: B1 heavy
# light: B1 light
# notes: F3′ format; also called AB1886-VL-VH TriNKET®; 10F10-IGHV3-11*01 BM1
# B7: AB1884-TriNKET® (bispecific antibody, human IgG1, kappa)
# chain: B1 chain with K144Q, V179I, S180A
# heavy: B1 heavy
# light: B1 light
# notes: F3′ format; also called AB1884-VL-VH TriNKET®; 10F10-IGHV3-48*01 BM2
# B8: AB1881-TriNKET® (bispecific antibody, human IgG1, kappa)
# chain: B1 chain with V136L, K144Q, V179I, S180A, S209T
# heavy: B1 heavy
# light: B1 light
# notes: F3′ format; also called AB1881-VL-VH TriNKET®; 10F10-IGHV3-23*03 BM2
# B9: AB1011 (antibody, V domains shown)
# VH: EVQLVESGGGLVKPGGSLRLSCAASGFTFSDYGMHWVRQAPGKGLEWVSYISSGSSTFYYADTVKGRFTISRDNAKNSLYLQMNSLRAEDTAVYYCGSSQSYYRGTMDYWGQGTTVTVSS
# VL: DIQLTQSPSSLSASVGDRVTITCRASQGVSTSTYTYMHWFQQKPGKAPKLLIKFASNLESGVPSRFSGSGSGTDFTLTISSLQPEDFATYYCQHSWEIPWTFGGGTKVEIK
# notes: member of the group m33
# B10: AB1015 (antibody, V domains shown)
# VH: B9 VH with M107I
# VL: B9 VL with M37L
# notes: member of the group m33
# B11: AB1013 (antibody, V domains shown)
# VH: B9 VH
# VL: B9 VL with M37V
# notes: member of the group m33
# B12: AB1014 (antibody, V domains shown)
# VH: B9 VH with M107I
# VL: B9 VL
# notes: member of the group m33
# B13: AB1016 (antibody, V domains shown)
# VH: B9 VH with M107I
# VL: B9 VL with M37V
# notes: member of the group m33
# B14: AB1012 (antibody, V domains shown)
# VH: B9 VH
# VL: B9 VL with M37L
# notes: member of the group m33
# B15: 10F10 multispecific binding protein (F0) (bispecific antibody, V domains shown)
# VH: EVQLQESGGGLVKPGGSRRLSCAASRFTFSDFGMHWVRQAPEKGLEWIAYISSGSSTIYYADTVKGRFTISRDNAKNTLFLQMTSLRSEDTAMYYCASSQSYYRGTLDYWGQGTSVTVSS
# VL: DIVLTQSPASLAVTLGQRATISCRASQSVTTSNYNYMHWFHQKPGQPPKLLIKFASNLESGVPARFSGSGSGTDFTLNIHPVEEEDIATYYCQHSWEIPWTFGGGTKLEIK
# B16: 8E06 multispecific binding protein (F0) (bispecific antibody, V domains shown)
# VH: EVQLQESGAEMVRPGASVKLSCKASGYTFTSYWMHWVKQRPGQGLEWIGKIDSSDSKTQYNQKFKDKATLTVDKSSITVYMELNSLTSEDSAVYYCARGGYLWFAYWGQGTLVTVSA
# VL: B15 VL with L4M, T14S, T30S, N33T, N35S, F40Y, H41Q, P47S, K53T, F54Y
# notes: also called 08E06
# B17: AB1017 (antibody, V domains shown)
# VH: B9 VH with A23E, V48L, S49A
# VL: B9 VL
# notes: member of the group m33
# B18: AB1019 (antibody, V domains shown)
# VH: B9 VH with A23E, V48L, S49A
# VL: B9 VL with M37V
# notes: member of the group m33
# B19: AB1018 (antibody, V domains shown)
# VH: B9 VH with A23E, V48L, S49A
# VL: B9 VL with M37L
# notes: member of the group m33
# B20: AB1893-TriNKET® (bispecific antibody, human IgG1, kappa)
# chain: DIQLTQSPSSLSASVGDRVTITCRASQGVSTSTYTYMHWFQQKPGKAPKLLIKFASNLESGVPSRFSGSGSGTDFTLTISSLQPEDFATYYCQHSWEIPWTFGCGTKVEIKGGGGSGGGGSGGGGSGGGGSEVQLLESGGGLVQPGGSLRLSCAASGFTFSDYGMHWVRQAPGKCLEWLAYISSGSSTFYYADTVKGRFTISRDNAKNTLYLQMNSLRAEDTAVYYCGSSQSYYRGTMDYWGQGTTVTVSSGSDKTHTCPPCPAPELLGGPSVFLFPPKPKDTLMISRTPEVTCVVVDVSHEDPEVKFNWYVDGVEVHNAKTKPREEQYNSTYRVVSVLTVLHQDWLNGKEYKCKVSNKALPAPIEKTISKAKGQPREPRVYTLPPCRDELTKNQVSLTCLVKGFYPSDIAVEWESNGQPENNYKTTPPVLVSDGSFTLYSKLTVDKSRWQQGNVFSCSVMHEALHNHYTQKSLSLSPG
# heavy: B1 heavy
# light: B1 light
# notes: F3′ format; also called AB1893-VL-VH TriNKET®; 11F09-IGHV3-23*03 BM2-YB
# B21: AB1890-TriNKET® (bispecific antibody, human IgG1, kappa)
# chain: B20 chain with L179V, A180S, A206S
# heavy: B1 heavy
# light: B1 light
# notes: F3′ format; also called AB1890-VL-VH TriNKET®; 11F09-IGHV3-23*03 BM1-YB
# B22: AB1891-TriNKET® (bispecific antibody, human IgG1, kappa)
# chain: B20 chain with L136V, Q144K, V168I, L179V, A180S, T209S
# heavy: B1 heavy
# light: B1 light
# notes: F3′ format; also called AB1891-VL-VH TriNKET®; 11F09-IGHV3-11*01 BM1-YB
# Target: T1, human 5T4 on the cell surface
# Assay: cell binding assay on 5T4-expressing tumor cells (cell line not given)
EC50,Max Fold Over Background (FOB),Binder
10.1 nM,71.6 fold over background,B1
10.2 nM,75 fold over background,B2
5.37 nM,68 fold over background,B3
8.55 nM,71.8 fold over background,B4
4.21 nM,60 fold over background,B5
5.65 nM,73.5 fold over background,B6
6.08 nM,70.5 fold over background,B7
7.28 nM,72.5 fold over background,B8

# Target: T1, human 5T4 on the cell surface
# Assay: flow cytometry on H1975 cells, FOB
row,binding result,Binder
1,binds,B9
2,binds,B10
3,binds,B11
4,binds,B12
5,binds,B13
6,binds,B14

# Target: T1, human 5T4 on the cell surface
# Assay: flow cytometry on 5T4+ H1975 cells
EC50,Max (FOB),Binder
3.4 nM,17.9 fold over background,B15
> 12 nM,,B16

# Target: T1, human 5T4 on the cell surface
# Assay: cell-based or functional assay
row,"lysis of H1975 cells by KHYG-CD16V cells, EC50",Binder
1,0.059 nM,B15
2,0.51 nM,B16

# Target: T1, human 5T4 on the cell surface
# Assay: flow cytometry on H1975 cells, FOB
# Remark: another data set of the same source
row,binding result,Binder
1,binds,B17
2,binds,B18
3,binds,B19

# Target: T1, human 5T4 on the cell surface
# Assay: cell binding assay on 5T4-expressing tumor cells (cell line not given)
# Remark: another data set of the same source
EC50,Max Fold Over Background (FOB),Binder
15.9 nM,70.8 fold over background,B20
5.62 nM,65.9 fold over background,B21
50.5 nM,40.1 fold over background,B22
